In paper doi:10.1101/2020.08.17.254201:

Tests used:
[1] = biological target: SiEsaA_(328-685), fragment of Streptococcus intermedius B196 EsaA (Streptococcus intermedius B196); test: SEC-MALS
[2] = biological target: SgEsaA_(332-725) (Streptococcus gallolyticus ATCC 43143); test: SEC-MALS

SiEsaA_(328-685), fragment of Streptococcus intermedius B196 EsaA (domain or fragment)
stoichiometry N [1]: 2

SgEsaA_(332-725) (domain or fragment)
stoichiometry N [2]: 2
